Assay results as given in paper PMC10729856.

Target: SidN (Lpg1083), recombinant with 6-His tag (Legionella pneumophila) (UniProt Q5ZWK2)
Assay: SEC

SidN (Lpg1083), recombinant with 6-His tag (from UniProt Q5ZWK2 1-227) (natural protein)
stoichiometry N: 2
